Results on 17 sequences are retold here after the DeepSol protein solubility set.

The data set in a line: soluble on expression in E. coli; label from the status in PepcDB or PDB records.
For “MAHHHHHHMRCFTPRLSAAGNGVWRGFRQMYEEYALWRDRRDDERYAAVSEEGEEGITLSNRRICANPNACPRSVLLVPADCIVEAFRRERRGGVTADAVMFDLTCCRGSRGEARDNILRFLQAEEKGEKRGEDISEGQCSHADERGRYLIRVNSPEFDSANGFLDMELAALLGERIEGVLLPAVTVNTYSLVEEYIHPSHHLWALFDTPLSVVQASEICRQGHYRYAVMGSRRLAEDLHLPIGGVTYGDTYRGENNSENATPAALLGSLPLLNSSLQVLLAARAFNMNILDDAFEDASDTAGFSRDLHLSRSLGFEGKLVINPAQLASCHAAFAPSAEELSWARGVQQRMARRYATEESAGKLEAAQWRRAACLLERHREAELQGAAPTQRGGGGGVE”, the “soluble on expression in E. coli” value is given as “not soluble”. Under “MAHHHHHHMNSSTVSEDIALAGIKKEVLRSLPFWKSFVELREAYHRRPRVFSCDVSIKSRKACSHFVGFDVLWVQSEVVLVSWRRPSKRNRANDFPPEFVEVHLTFGSMHFVHQNVHLVGDHCSYSLQSVVLLQRPEQLQCVAGNMVHFAFLVYGMLHISQRDGFLTDPRAILPPPNSAVMLLGMGGNSMERGIRYILGEDAHIYIAEIEPAVVSTCRFAGLLKENANTHVCLDSAERTIQKCPEKCTFIFMDLFEPLSGNMVNTMPLIRQAFDILAPNGILLINEHSIPTVEHLLPLLHLFGDHNVQFVNVRGWNESIIAATKPGGNADGLGRKCSKRLATDVLNDFDHTFPGWMPDKNYILRSQILYAKPLTLKLRARQWTS” stands “not soluble”; under “LQETGAEFKIEVSILKDKATVLIDTTGASLFKRGYRTDKGGAPIKENMAAAILELSNWYPDKPLIDPTCGSGTFCIEAAMIGMNIAPGFNRDFAFEAWNWVGKDLVQSVRDEADSKANYDVALDIMGCDIDSRMVEIAKANAREAGLEDVVKFKQMRLQDLKTDKINGVIISNPPYGERLLDDKAVDILYNEMGQTFAPLKTWSKFILTSDEQFESKYGMKADKKRKLYNGTLRVDLYQYFGERVRRSEARKVN”, “not soluble”.

As for “MAHHHHHHMNDDNTLALLYEGINLIFDKWTILRLAVTNNWGGINSEDKKKKLIEYVHNFVTNNNAKNKLCDYLRDEMSVLFNVDIEDHSDIEIADLILDLYQNLKKKNYDILEKIKNIQIYDISCSQEKNLIQNYEQGDEENMEDEYSSSNYSEYSNEESLDKE”, the “soluble on expression in E. coli” value is “soluble”. Under “MGHHHHHHSHNFHYGAGHPMKPHRLALTHSLVLHYGLYKKMIVFKPYQASQHDMCRFHSEDYIDFLQRVSPTNMQGFTKSLNAFNVGDDCPVFPGLFEFCSRYTGASLQGATQLNNKICDIAINWAGGLHHAKKFEASGFCYVNDIVIGILELLKYHPRVLYIDIDIHHGDGVQEAFYLTDRVMTVSFHKYGNYFFPGTGDMYEVGAESGRYYCLNVPLRDGIDDQSYKHLFQPVINQVVDFYQPTCIVLQCGADSLGCDRLGCFNLSIRGHGECVEYVKSFNIPLLVLGGGGYTVRNVARCWTYETSLLVEEAISEELPYSEYFEYFAPDFTLHPDVSTRIENQNSRQYLDQIRQTIFENLKMLNHAPSVQIHDVPADLLTYDRTD” stands “not soluble”. The result for “MSQNATVNVDIKLGVNKFHVDEGHPHIILTENPDINEFRKLMKACPAGLYKQDDVGNIHFDPAGCLECGTCRVLCGNTILEQWQYPAGTFGIDFRYG” reads “not soluble”. The result for “MIYRKATEKDIAQLVELRKKQLEDEGIAPINNIDTELTHFFELSFKKNSFISWISEEDNEIIATSGVCFYKYPPSYLNPSGKVAYITNMYTKYEYRSRGIALALLKLVILEAKKRDYLFLRLHASDMGRPIYEEIGFKPFDDFMEMNLSLNRNGELEHHHHHH” reads “soluble”; that for “MAKSRTIYVCAECGGTSLKWQGKCPHCSAWNTLEETVESAAPSAGGHRYAPLAAASPVRSLSEIEARETPRQPTGLDEFDRVLGGGLVAGAVVLIGGDPGIGKSTLLLQALASLSATTKVLYVTGEESAEQVALRARRLGLQTGNVDLLAEIRLEAIQAAVSEQKPTVAVIDSIQTLYSGELTAAPGSVSQVRECAAQLTRLAKQTGIAIVMIGHVTKDGALAGPRVLEHIVDTVLYFEGDTHSSFRLVRAFKNRFGAVNELGVFAMTDRGLRGVANPSALFLSQHQQQVAGSCVLATQEGTRPLLVEVQALVDTSHAPNPRRLTVGLEGNRLAMLLAVMHRHAGVSTYDQDVFVNAVGGVRITEPAADLPVLLAIMSSLRDKPLPAGLVAFGEIGLAGEIRPAPRGQERLREAAKLGFSVALIPKANAPRQPIEGLEIWAVDRLDAALDKLRLEHHHHHH”, “soluble”. “MFTKSGDDGNTNVINKRVGKDSPLVNFLGDLDELNSFIGFAISKIPWEDMKKDLERVQVELFEIGEDLSTQSSKKKIDEKYVKWLEERTVEYRKESGPVKLFVIPGGSEEASVLHVTRSVARRVERNAVKYTKELPEINRMIIVYLNRLSSLLFAMALVANKRRNVSEKIYDIGKFW”: the “soluble on expression in E. coli” value is “soluble”. The result for “CYVDTNNDGAYEGDELSGTMEYKLILNGKTLKGETTTCAVDAATAEKVFKQYANDNGVDGEWTYDDATKTFTVTE” reads “soluble”; that for “GSTIAPEEHYTPEEASSREETAWDTAAEEVELLAADGAVHNQELFLECTTSPLIFASAMLNFGVHQILDTLCELAPQPHGRESDERAVEAATGAFDSSREVTDEFSGVVFKVQAGMDKNHRDSLAFMRVVSGEFDRGMQVTHAQSGRSFSTKYALTVFGRTRSTVESAFPGDIVGLVNAGSLAPGDTIFAGRKVQYPPMPQFAPEHFRTLRAKSLGKYKQFRKALDQLAAEGVVQILKNDARGDAAPVMAAVGPMQFEVMMARMQNEYNVETVADPIPYSVARRTTPETATELAKQRGVEIFTRTDGELVALFGDKWKLAFIEKEHPEFELLPMVAD”, “not soluble”; that for “MSSSDAFWRMFANKNKGKSNTRSAFQVVKEEQPSTSTEPDDKKPLHHEIAGEMIKNPAKGKRKRVQIKNDEYEQLMMLGVPVRVPRGLSLYSTQKLMIVRILTALKNSQNVLGESPTGSGKTMALLASTCAWLKQYIDEKRESKEKCEIHGFSGKTQVVFTNDIGIPLESKVYEEPPEEEEFIEPVPVKNDKLFEAQWEHDFTPHTPGETPPVTLKEELEPVKKPEPVETKCTCLPRVRIYYGTRTHKQIAQVVKEFSRLPYAKILKHTILASREQSCINPAARKHADISQYCKEVNSAHSIGCSFKSAMKPRFEKALPLRDHLERNGTVVFDMEKIVETLAISYPQLCPYFSTNRILTQDADIIFCPFSYLVDPLIRNSSDVQIRNSIVILDEAHNIEDTCREAASFSFTEKELDDSILSLRIKRKAVDTELDKTGIEEKLLHIPDREVHLKEFRGHLLYLEHLILEMLRWIRQVSTEAKTPARGGQDGVKTCTISSANLFTSLTDPENGVDLFTPPLTPKHAAVAASFSAITKHNEPEMQYFDAFKPSSTAIVCIEKWLYFQSYFGNQQYQSTYRLNISIEPINQNGRFNHTFDADVSMSTSFGNPRPTTTRSSAGPRNMQYKEENAWLADAAADGDDWKDPSMSETGHKPISEGCKTTISLWCMSPALSFFDAFNETRSIVLASGTLCPMDTLKTELGMEFKQQVEGDQVINKDNIFAAVLPIGPFGNRIQCTYRNTSDPESSFYCELGAIIKYVCSNVPAGILCFLPSYRVLDQLKQCMIRNSTMRQIEMKKVVLYEPRRSSELTSVMDQFDAAIFDPSRFGANINGSLMFAVFRGKVSEGIDFADDRARVVISVGIPYPNAMDDQVNAKKLYNDQNSKEKGILTGDEWYTTQAYRALNQALGRCLRHKNDWGAMLMIDERLERQTGNLVGGASSARVSKWIRAQLKSYPSFKEFNANFREFIQRRHAVEKAKKENFCE”, “not soluble”. The result for “VRSRNGGATKIVREHYLRSDIPCLSRSCTKCPQIVVPDAQNELPKFILSDSPLELSAPIGKHYVVLDTNVVLQAIDLLENPNCFFDVIVPQIVLDEVRNKSYPVYTRLRTLCRDSDDHKRFIVFHNEFSEHTFVERLPNETINDRNDRAIRKTCQWYSEHLKPYDINVVLVTNDRLNREAATKEVESNIITKSLVQYIELLPNADDIRDSIPQMDSFDKDLERDTFSDFTFPEYYSTARVMGGLKNGVLYQGNIQISEYNFLEGSVSLPRFSKPVLIVGQKNLNRAFNGDQVIVELLPQSEWKAPSSIVLDSEHFDVNDNPDIEAGDDDDNNESSSNTTVISDKQRRLLAKDAMIAQRSKKIQPTAKVVYIQRRSWRQYVGQLAPSSVDPQSSSTQNVFVILMDKCLPKVRIRTRRAAELLDKRIVISIDSWPTTHKYPLGHFVRDLGTIESAQAETEALLLEHDVEYRPFSKKVLECLPAEGHDWKAPTKLDDPEAVSKDPLLTKRKDLRDKLICSIDPPGCVDINDALHAKKLPNGNWEVGVHIADVTHFVKPGTALDAEGAARGTSVYLVDKRIDMLPMLLGTDLCSLKPYVDRFAFSVIWELDDSANIVNVNFMKSVIRSREAFSYEQAQLRIDDKTQNDELTMGMRALLKLSVKLKQKRLEAGALNLASPEVKVHMDSETSDPNEVEIKKLLATNSLVEEFMLLANISVARKIYDAFPQTAMLRRHAAPPSTNFEILNEMLNTRKNMSISLESSKALADSLDRCVDPEDPYFNTLVRIMSTRCMMAAQYFYSGAYSYPDFRHYGLAVDIYTHFTSPIRRYCDVVAHRQLAGAIGYEPLSLTHRDKNKMDMICRNINRKHRNAQFAGRASIEYYVGQVMRNNESTETGYVIKVFNNGIVVLVPKFGVEGLIRLDNLTEDPNSAAFDEVEYKLTFVPTNSDKPRDVYVFDKVEVQVRSVMDPITSKRKAELLLK” reads “soluble”. The result for “MEKDLQLRVNEKLDVENILKDLDKYTPKRRGWTWRQPAENLQMGPFIYKDASTPLENSVALPSAKYFGDIDPQPLPVITTEIASGRFEDDIRRMRMAAWHGADHIMVIRTAGQSHYDGLIEGTPQGIGGVPITRKQVRAQRKALDLIEEEVGRPINYHSYVSGVAGPDIAVMFAEEGVNGAHQDPQYNVLYRNINMIRSFIDACESKTIMAWADMAQIDGAHNANATAREAWKVMPELMVQHALNSIFSLKVGMKKSNICLSTVPPTAPPAPSMYLDLPYAVALREMFEGYRMRAQMNTKYMEASTREATVTHVLNLLISKLTRADIQSTITPDEGRNVPWHIYNIEACDTAKQALIGMDGLMDMVQLKREGVLGDTVRELKERAVLFMEEIIEAGGYFNAVEQGFFVDSGYYPERNGDGIARQINGGIGAGTVFERDEDYMAPVTAHFGYNNVKQYDEALVSEPSKLIDGCTLEVPEKIVYIDELDENDNVNVRMEETKEFRHSSMIKPEVEWQADGTVLLTMFLPTSKRVAEFAAIEFAKKMNLEEVEVINREVMQEAEGTRIELKGRVPFSIDINSLVIPPEPEILSEDEIREDIEKTPLKIVAATVGEDEHSVGLREVIDIKHGGIEKYGVEVHYLGTSVPVEKLVDAAIELKADAILASTIISHDDIHYKNMKRIHELAVEKGIRDKIMIGCGGTQVTPEVAVKQGVDAGFGRGSKGIHVATFLVKKRREMREGKSEDPNSSSVDKLAAALEHHHHHH” reads “soluble”; that for “AHHHHHHGSTLRLLNDFVKDKLFGETVLVENNSYLGVETLLFVIFKLGEELNVPILVEDVLDTFSIYKKHLEMLGLKTPENIKILKIGGSEEGKGVVKRIPFDFDISRYLLEYGKSFEDVSPKEKFIDLVFGLDRFFILIDNLIDTAKLLNSIKNYIHNENRTAFYFIEANLLKATKPIILYYLEDIATSVVRINQEKNILTFEPVKDIWSVRNKINQISISFGDLFRETL”, “not soluble”. For the sequence “MLPQHDFIFFFFAFSILSPSPPPLSSFSSPPPPSFSFFIASTSFFSSQPPSHPRVKKCIDTHTTPSTLTFFSAHHPLASPKIHYEVVLYYSFFFKFRLRLLLVSVAHQLLE”, the “soluble on expression in E. coli” value was “not soluble”. The result for “MGAVSAFSWASSGRLHALEVFVMKIPKTYDEIMEHFGGLIDEVTAELLESYAKGETVRVSEALAKSGRVAVEGVVLRVFPVRHFSKNGRSGKVGSVVIQDDCTVRVNFWNEAAEIIEAGDIVEGARIKVRGYARGEEIHVNSLSEVEVFVDFVNISELDEKVGERVNVKGFVSGLGEPEKANEIYISDETGRVKVLLENESLYYAVDIGSYVEIYNALAGEDGIYVDRNSRFSVGE” reads “soluble”.
